± gives the standard deviation of the averaged measurements.
The sequences below were run on Saccharomyces cerevisiae (assay: protein stability index of tFT-peptide fusion (C-terminal peptide) (PSI (0-1 scale)); higher = more stable (slower turnover)). Conditions: genetic background: wild type; temperature: 30 C.
Experimental: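 Multiplexed protein stability (MPS) profiling in S. cerevisiae. Random 12-aa peptides (tFT-X12 library) are fused to the C-terminus of a sfGFP-mCherry tandem fluorescent timer, after mCherry and a GGGS linker. Cells are FACS-sorted into 8 mCherry/sfGFP bins and deep-sequenced. The protein stability index (PSI) is the read-weighted bin average, scaled from 0 (unstable) to 1 (stable). Only peptides with >10 reads are reported; cells were grown at 30 °C in SC-His with glucose.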
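Further: PSI is a weighted mean of sequencing reads over stability bins, variants kept only with over 10 reads, mCherry proximal and sfGFP distal, peptide attached via GGGS linker.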

For CGTYFRLTRCAV, which protein stability index is on record?
The protein stability index was 0.577 ± 0.043.

For CGVLPTPDRHHS, which protein stability index is on record?
The protein stability index was 0.631 ± 0.084.

For CGWAWGWRESKM, which protein stability index is on record?
Its protein stability index is 0.723 ± 0.1.

Which protein stability index does the source give for CHPFQAAVPIYL here?
Its protein stability index is 0.581 ± 0.12.

CHRSSPPPPPPT was tested. Which protein stability index did it give?
Its protein stability index is 0.711 ± 0.046.

CIFTVINNTPYC was tested. Which protein stability index did it give?
Its protein stability index is 0.801 ± 0.12.

With CISCVVDSPLSV as the sequence, how does the protein stability index read?
The protein stability index was 0.712 ± 0.045.

CISGRGIYAKAF was tested. Which protein stability index did it give?
The protein stability index was 0.699 ± 0.043.

CLGSVFYCCWNF was tested. Which protein stability index did it give?
The protein stability index was 0.648 ± 0.025.

How did the protein stability index turn out when CLHFSFFTFENF was run?
Its protein stability index is 0.67 ± 0.02.

CLPFSCFLLTPR was tested. Which protein stability index did it give?
The protein stability index was 0.692 ± 0.014.

How did the protein stability index turn out when CLPTGMSKFPDF was run?
Its protein stability index is 0.683 ± 0.029.

CLRFPALPRRHP was tested. Which protein stability index did it give?
The protein stability index was 0.772 ± 0.017.

How did the protein stability index turn out when CLSHSIYYSFSF was run?
Its protein stability index is 0.691 ± 0.086.

With CLVLDILSETWL as the sequence, how does the protein stability index read?
Its protein stability index is 0.71 ± 0.036.

CLWCCFTDCCDT was tested. Which protein stability index did it give?
The protein stability index was 0.762 ± 0.011.

CLWLALMSIFLP was tested. Which protein stability index did it give?
The protein stability index was 0.539 ± 0.03.

CLWTSAQVPFQT was tested. Which protein stability index did it give?
Its protein stability index is 0.703 ± 0.0081.

For CMASCTRSYYRL, which protein stability index is on record?
The protein stability index was 0.661 ± 0.005.

How did the protein stability index turn out when CPAPCPPLPPHV was run?
The protein stability index was 0.71997 ± 0.00064.

With CPCPSHLLLRSP as the sequence, how does the protein stability index read?
The protein stability index was 0.659 ± 0.0084.

CPDGSGWLARGC was tested. Which protein stability index did it give?
The protein stability index was 0.661 ± 0.11.

For CPFPPPPCPPPL, which protein stability index is on record?
Its protein stability index is 0.665 ± 0.02.

For CPGGRKPRQTAG, which protein stability index is on record?
Its protein stability index is 0.679 ± 0.14.

Which protein stability index does the source give for CPGPPSLSPRPS here?
Its protein stability index is 0.672 ± 0.029.

For CPLPIKANLSFP, which protein stability index is on record?
The protein stability index was 0.705 ± 0.037.

With CPLPPPRPLLSA as the sequence, how does the protein stability index read?
Its protein stability index is 0.651 ± 0.026.

Which protein stability index does the source give for CPPPPPPPPSRC here?
The protein stability index was 0.704 ± 0.036.

For CPPRIVRPRGVK, which protein stability index is on record?
The protein stability index was 0.6775 ± 0.0019.

With CPRAPKTPISGI as the sequence, how does the protein stability index read?
Its protein stability index is 0.635 ± 0.049.

How did the protein stability index turn out when CPRPPPPTACPV was run?
Its protein stability index is 0.641 ± 0.1.

CPSAPHNTLSTG was tested. Which protein stability index did it give?
The protein stability index was 0.68 ± 0.052.

CQERKLKNQPMV was tested. Which protein stability index did it give?
Its protein stability index is 0.607 ± 0.054.

For CQILLSYSGYPH, which protein stability index is on record?
Its protein stability index is 0.589 ± 0.021.

For CQWLIVEWEEKG, which protein stability index is on record?
Its protein stability index is 0.662 ± 0.083.

For CRAGSVGGIRGR, which protein stability index is on record?
The protein stability index was 0.693 ± 0.015.

Which protein stability index does the source give for CRPTGSSTRFQL here?
Its protein stability index is 0.718 ± 0.01.

With CRWGGGGRRGRG as the sequence, how does the protein stability index read?
Its protein stability index is 0.723 ± 0.025.

Which protein stability index does the source give for CSAHVPAPHSYR here?
The protein stability index was 0.704 ± 0.061.

With CSDGAFELRRDG as the sequence, how does the protein stability index read?
Its protein stability index is 0.544 ± 0.078.

Which protein stability index does the source give for CSDISASTVSRL here?
The protein stability index was 0.715 ± 0.039.

For CSKLYGAFANTF, which protein stability index is on record?
Its protein stability index is 0.644 ± 0.1.

How did the protein stability index turn out when CSKRTGRKSVTY was run?
Its protein stability index is 0.7299 ± 0.0063.

For CSLSGAFLNQAR, which protein stability index is on record?
Its protein stability index is 0.6842 ± 0.0041.

For CSPCSFCDLVSH, which protein stability index is on record?
Its protein stability index is 0.691 ± 0.03.

With CSSGGFSLFDEA as the sequence, how does the protein stability index read?
The protein stability index was 0.7504 ± 0.0024.

Which protein stability index does the source give for CSWLVEWVLSFS here?
The protein stability index was 0.5417 ± 0.0041.

CTAWGGWWTGRR was tested. Which protein stability index did it give?
The protein stability index was 0.743 ± 0.16.

With CTCGDFHRAWVS as the sequence, how does the protein stability index read?
The protein stability index was 0.667 ± 0.01.

CTCTVSMLPRTC was tested. Which protein stability index did it give?
The protein stability index was 0.639 ± 0.017.

How did the protein stability index turn out when CTFSGSHGSFPS was run?
Its protein stability index is 0.717 ± 0.028.

For CTHYFSNSCLLR, which protein stability index is on record?
Its protein stability index is 0.604 ± 0.063.

For CTICQLASKAIC, which protein stability index is on record?
The protein stability index was 0.599 ± 0.04.

For CTRGVVSPKLFV, which protein stability index is on record?
Its protein stability index is 0.786 ± 0.17.

With CTRLSQTSMGRG as the sequence, how does the protein stability index read?
The protein stability index was 0.696 ± 0.043.

How did the protein stability index turn out when CTSCDVFVFCPF was run?
The protein stability index was 0.708 ± 0.036.

CVAFLPISSFTS was tested. Which protein stability index did it give?
The protein stability index was 0.76 ± 0.07.

How did the protein stability index turn out when CVAGSARVCDVR was run?
The protein stability index was 0.627 ± 0.083.

For CVDWGAVGLVAG, which protein stability index is on record?
The protein stability index was 0.598 ± 0.018.

With CVGFVVVGGVLG as the sequence, how does the protein stability index read?
Its protein stability index is 0.667 ± 0.05.

For CVGGFLEGIRLG, which protein stability index is on record?
Its protein stability index is 0.711 ± 0.041.

How did the protein stability index turn out when CVGVEDFFFACF was run?
Its protein stability index is 0.703 ± 0.029.

How did the protein stability index turn out when CVVRSGIGFSLL was run?
Its protein stability index is 0.741 ± 0.026.

With CWAGKITAKIDV as the sequence, how does the protein stability index read?
The protein stability index was 0.666 ± 0.0085.

With CWRDTSSPSVLD as the sequence, how does the protein stability index read?
Its protein stability index is 0.682 ± 0.041.

How did the protein stability index turn out when CYCTYHDQDSVS was run?
Its protein stability index is 0.757 ± 0.032.

CYLKGSGSWISG was tested. Which protein stability index did it give?
The protein stability index was 0.718 ± 0.031.

For CYPPTRYILGYF, which protein stability index is on record?
The protein stability index was 0.72 ± 0.06.

Which protein stability index does the source give for DARALMGEGGSV here?
Its protein stability index is 0.651 ± 0.016.

DARKTKNRKDTA was tested. Which protein stability index did it give?
The protein stability index was 0.699 ± 0.024.

How did the protein stability index turn out when DARRAKPTRRNA was run?
Its protein stability index is 0.688 ± 0.059.

For DAWSFHNGATGA, which protein stability index is on record?
Its protein stability index is 0.676 ± 0.029.

How did the protein stability index turn out when DCCAHLRARRLT was run?
The protein stability index was 0.539 ± 0.035.

With DCFSLVLRFTPV as the sequence, how does the protein stability index read?
The protein stability index was 0.64 ± 0.034.

DCRATNTTWGLS was tested. Which protein stability index did it give?
The protein stability index was 0.697 ± 0.18.

With DCVFLPCPRFFL as the sequence, how does the protein stability index read?
The protein stability index was 0.707 ± 0.03.

How did the protein stability index turn out when DDSHVLILKFNW was run?
The protein stability index was 0.691 ± 0.045.

Which protein stability index does the source give for DERESLFPLCSG here?
The protein stability index was 0.725 ± 0.015.

Which protein stability index does the source give for DETIAALYTMTD here?
The protein stability index was 0.615 ± 0.014.

For DEVGVGASSNVF, which protein stability index is on record?
Its protein stability index is 0.619 ± 0.037.

For DFCSVDLNLCIV, which protein stability index is on record?
The protein stability index was 0.61 ± 0.011.

DFGVRLGGPRTL was tested. Which protein stability index did it give?
Its protein stability index is 0.645 ± 0.017.

Which protein stability index does the source give for DGAVRRGVGGLG here?
The protein stability index was 0.699 ± 0.031.

For DGCVTVDIRRGV, which protein stability index is on record?
Its protein stability index is 0.733 ± 0.016.

With DGGTSGGGVPVP as the sequence, how does the protein stability index read?
The protein stability index was 0.637 ± 0.054.

Which protein stability index does the source give for DGKLNTASIEKV here?
Its protein stability index is 0.684 ± 0.036.

DGQSAKEPVGFR was tested. Which protein stability index did it give?
Its protein stability index is 0.681 ± 0.037.

Which protein stability index does the source give for DGRGPVSPTSLR here?
Its protein stability index is 0.662 ± 0.036.

For DGVAILPLVRIS, which protein stability index is on record?
The protein stability index was 0.63 ± 0.031.

Which protein stability index does the source give for DGWKERDSGVVG here?
The protein stability index was 0.701 ± 0.018.

For DHLTGTPPSPTV, which protein stability index is on record?
Its protein stability index is 0.72 ± 0.048.

With DIEFGLSTVVCH as the sequence, how does the protein stability index read?
The protein stability index was 0.5099 ± 0.0046.

DIYGYENNIIKN was tested. Which protein stability index did it give?
Its protein stability index is 0.708 ± 0.013.

For DKIYNRNSKRRI, which protein stability index is on record?
Its protein stability index is 0.6418 ± 0.0055.

DKMLDIETNNKH was tested. Which protein stability index did it give?
The protein stability index was 0.654 ± 0.033.

With DKRPTLYSLSLS as the sequence, how does the protein stability index read?
Its protein stability index is 0.621 ± 0.032.

DKSGVYYMYSFK was tested. Which protein stability index did it give?
The protein stability index was 0.733 ± 0.059.

Which protein stability index does the source give for DLGSFVNSGWVT here?
The protein stability index was 0.706 ± 0.044.

Reference: the supplement of paper PMC10724198
